In patent US20120329997A1 (Hoffmann-La Roche, published 2012):
Where a chain is given by its changes, count along the chain named. Where two headings read alike, the source gives them in different places.

Experiments:
[1] = target: CSF-1R ECD (R&D-Systems 329-MR or in-house subcloned pCMV-presS-HisAvitag-hCSF-1R-ECD) (human) (UniProt P07333); experiment: SPR (BIACORE A100), 35 C, antibody captured, CSF-1R ECD in solution
[2] = target: huCSF-1R-huFc chimera (soluble extracellular domain) (human) (UniProt P07333); experiment: competition ELISA, inhibition of CSF-1 binding to immobilized huCSF-1R-huFc
[3] = target: T1, full-length wildtype CSF-1R (wt CSF-1R) (human, UniProt P07333 20-972); experiment: cell-based or functional assay
[4] = target: CSF-1R ECD (R&D-Systems 329-MR or in-house subcloned pCMV-presS-HisAvitag-hCSF-1R-ECD) (human) (UniProt P07333); experiment: SPR cross-competition, 25 C; second antibody on CSF-1R held by captured Antibody 1; competitor SC-02, clone 2-4A5 (Antibody 1)
[5] = target: CSF-1R ECD (R&D-Systems 329-MR or in-house subcloned pCMV-presS-HisAvitag-hCSF-1R-ECD) (human) (UniProt P07333); experiment: SPR cross-competition, 25 C; second antibody on CSF-1R held by captured Antibody 1; competitor <CSF-1R>7H5.2G10 (Antibody 1)
[6] = target: mutant CSF-1R L301S Y969F (human, UniProt P07333 20-972); experiment: cell-based or functional assay
[7] = target: CSF-1R ECD (R&D-Systems 329-MR or in-house subcloned pCMV-presS-HisAvitag-hCSF-1R-ECD) (human) (UniProt P07333); experiment: SPR cross-competition, 25 C; second antibody on CSF-1R held by captured Antibody 1; competitor <CSF-1R>10A4.1G11 (Antibody 1)
[8] = target: T2, CSF-1R ECD (R&D-Systems 329-MR or in-house subcloned pCMV-presS-HisAvitag-hCSF-1R-ECD) (human, UniProt P07333 20-517); experiment: SPR (BIACORE A100), 35 C, antibody captured, CSF-1R ECD in solution
T2 construct: also called CSF-1R (R&D-Systems Cat. No. 329-MR)
Description: For affinity measurements 36 μg/ml anti mouse Fcγ antibodies (from goat, Jackson Immuno Reasearch JIR115-005-071) have been coupled to the chip surface for capturing the antibodies against CSF-1R. CSF-1R ECD (R&D-Systems 329-MR or in-house subcloned pCMV-presS-H isAvitag-hCSF-1R-ECD were added in various concentrations in solution. Association was measured by an CSF-1R-injection of 1.5 minutes at 35° C.; dissociation was measured by washing the chip surface with buffer for 10 minutes at 35° C. Anti CSF-IR SC-02, clone 2-4A5 (Santa Cruz Biotechnology, US; see also Sherr, C. J., et al., Cell 41 (1985) 665-676), which inhibits the ligand-receptor interaction, was used as reference control.

[9] = target: T1, full-length wildtype CSF-1R (wt CSF-1R); experiment: cell-based or functional assay; remark: listed apart in the source
[10] = target: T1, full-length wildtype CSF-1R (wt CSF-1R); experiment: cell-based or functional assay; remark: listed apart in the source
[11] = target: T1, full-length wildtype CSF-1R (wt CSF-1R); experiment: cell-based or functional assay; remark: listed apart in the source
[12] = target: T3, huCSF-1R-huFc chimera (soluble extracellular domain) (human, UniProt P07333 20-517); experiment: competition ELISA, inhibition of CSF-1 binding to immobilized huCSF-1R-huFc
T3 construct: also called huCSF-1R ECDhuFc chimera; not shown: human Fc
Description: At the beginning, plates were coated with […] goat F(ab′)₂ biotinylated anti Fcγ (Jackson ImmunoResearch., Cat. No. 109-006-170) for 1 hour (h).
Thereafter the wells were blocked with PBS supplemented with 0.2% Tween®-20 and 2% BSA (Roche Diagnostics GmbH, DE) for 0.5 h. 75 ng/ml of huCSF-1R-huFc chimera (soluble extracellular domain) was immobilized to plate for 1 h. Then dilutions of purified antibodies in PBS/0.05% Tween20/0.5% BSA were incubated for 1 h. After adding a mixture of 3 ng/ml CSF-1 (Biomol, DE, Cat. No. 60530), 50 ng/ml biotinylated anti CSF-1 clone BAF216 (R&D Systems, UK) and 1:5000 diluted streptavidin HRP (Roche Diagnostics GmbH, DE, Cat. No. 11089153001) for 1 h the plates were washed 6 times with PBST. Anti CSF-IR SC-02, clone 2-4A5 (Santa Cruz Biotechnology, US), which inhibits the ligand-receptor interaction, was used as positive control. Plates were developed with freshly prepared BM Blue® POD substrate solution (BM Blue®: 3,3″-5,5″-Tetramethylbenzidine, Roche Diagnostics GmbH, DE, Cat. No. 11484281001) for 30 minutes at RT. Absorbance was measured at 370 nm. […]

T1 sequence (P07333 20-972 limits assumed): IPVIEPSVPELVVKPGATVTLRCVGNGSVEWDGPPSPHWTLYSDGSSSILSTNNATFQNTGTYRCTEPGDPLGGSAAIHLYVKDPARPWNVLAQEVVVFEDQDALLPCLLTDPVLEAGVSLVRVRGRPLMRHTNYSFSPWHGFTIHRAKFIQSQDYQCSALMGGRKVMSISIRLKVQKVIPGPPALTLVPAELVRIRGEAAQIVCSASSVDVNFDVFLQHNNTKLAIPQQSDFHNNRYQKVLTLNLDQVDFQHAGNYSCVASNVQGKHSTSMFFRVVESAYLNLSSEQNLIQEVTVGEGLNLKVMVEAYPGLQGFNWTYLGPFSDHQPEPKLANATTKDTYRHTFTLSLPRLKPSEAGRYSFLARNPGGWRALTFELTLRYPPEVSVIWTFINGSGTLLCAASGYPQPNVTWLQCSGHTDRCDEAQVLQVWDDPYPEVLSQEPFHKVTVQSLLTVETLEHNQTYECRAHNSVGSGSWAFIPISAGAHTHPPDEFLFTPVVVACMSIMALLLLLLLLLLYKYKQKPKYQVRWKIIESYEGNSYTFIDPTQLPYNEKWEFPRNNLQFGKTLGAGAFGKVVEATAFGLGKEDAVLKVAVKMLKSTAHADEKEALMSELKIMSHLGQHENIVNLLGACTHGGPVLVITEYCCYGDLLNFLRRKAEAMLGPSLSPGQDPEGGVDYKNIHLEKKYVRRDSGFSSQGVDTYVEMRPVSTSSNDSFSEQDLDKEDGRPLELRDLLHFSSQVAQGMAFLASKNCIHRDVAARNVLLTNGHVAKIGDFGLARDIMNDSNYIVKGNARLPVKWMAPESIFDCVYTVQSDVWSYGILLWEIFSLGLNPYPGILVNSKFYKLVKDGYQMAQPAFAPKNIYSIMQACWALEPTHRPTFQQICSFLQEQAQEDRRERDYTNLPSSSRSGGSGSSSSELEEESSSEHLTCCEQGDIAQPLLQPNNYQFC
mutant CSF-1R L301S Y969F, sequence (P07333 20-972 L301S/Y969F limits assumed): as the sequence (P07333 20-972 limits assumed) above, with L282S, Y950F counted along it
T3 sequence (P07333 20-517, change not shown): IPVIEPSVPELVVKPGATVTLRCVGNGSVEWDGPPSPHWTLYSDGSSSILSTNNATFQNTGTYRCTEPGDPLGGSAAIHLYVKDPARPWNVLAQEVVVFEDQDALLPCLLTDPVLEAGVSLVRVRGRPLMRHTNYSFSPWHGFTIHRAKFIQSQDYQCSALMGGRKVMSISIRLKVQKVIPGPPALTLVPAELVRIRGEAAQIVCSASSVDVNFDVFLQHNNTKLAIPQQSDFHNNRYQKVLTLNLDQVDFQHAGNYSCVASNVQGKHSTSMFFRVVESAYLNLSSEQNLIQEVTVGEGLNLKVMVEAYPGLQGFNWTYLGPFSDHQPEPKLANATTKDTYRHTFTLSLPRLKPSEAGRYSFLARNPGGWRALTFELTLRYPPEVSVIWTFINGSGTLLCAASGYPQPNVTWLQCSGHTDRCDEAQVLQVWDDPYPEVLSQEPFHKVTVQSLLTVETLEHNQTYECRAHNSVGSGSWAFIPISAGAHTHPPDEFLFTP
CSF-1R ECD (R&D-Systems 329-MR or in-house subcloned pCMV-presS-HisAvitag-hCSF-1R-ECD) (human), sequence (P07333 20-517 limits assumed): as the sequence (P07333 20-517, change not shown) above
T2 sequence (P07333 20-517 limits assumed): as the sequence (P07333 20-517, change not shown) above
huCSF-1R-huFc chimera (soluble extracellular domain) (human), sequence (P07333 20-517, change not shown): as above

Molecule: Anti CSF-1R SC-02, clone 2-4A5 (Santa Cruz Biotechnology, US) (antibody)
- Kd [1]: 2.73 nM
- koff [1]: 0.00139 s⁻¹
- kon [1]: 509000 M⁻¹ s⁻¹
- t1/2 [1]: 8.31 min
- IC50 [2]: 0.0309 µg/mL
- % inhibition 10 ug/ml antibody concentration, BeWo tumor cells in 3D culture [3]: 40%
- % survival, NIH3T Cells expressing wtCSF-1R, 10 ug/ml antibody [3]: 62%
- IC50 CSF-1R Phosphorylation [3]: 0.412 µg/mL
- IC50 [nM], inhibition of the survival of monocytes [3]: 2.4 nM
- percentage (%) of expected binding response [4]: -2%
- percentage (%) of expected binding response [5]: 42%
- % survival, NIH3T Cells expressing Mutant CSF-1R, 10 ug/ml antibody [6]: 66%
- percentage (%) of expected binding response [7]: 24%

B1: <CSF-1R>7H5.2G10 (antibody, V domains shown)
VH: EVQLQQSGPELVKPGASMKISCKASGYSFTDYTVNWVKQSHGENLDWIGLIIPYNGGTSYNHNFRGKATLTVDKSSSTAYMELLSLTSEDSAVYYCTRGGGDFTTGYTMDYWGHGTSVTVSS
VL: DIQMTQSSSYLSVSLGGTVTINCKASDHIHDWLAWYQQQPGNAPRLLISGATSLETGVPSRFSGGGSGKDYSLIITSLQTEDFATYYCQQYWSIPWTFGGGTKLEIKR
notes: Mouse monoclonal antibody from a hybridoma (NMRI mice); also called deposited antibody DSM ACC2922
- Kd [8]: 0.54 nM
- koff [8]: 0.00038 s⁻¹
- kon [8]: 700000 M⁻¹ s⁻¹
- t1/2 [8]: 30.4 min
- IC50 [nM], inhibition of the survival of monocytes [9]: 1 nM
- % survival, NIH3T Cells expressing Mutant CSF-1R, 10 ug/ml antibody [6]: 112%
- % survival, NIH3T Cells expressing wtCSF-1R, 10 ug/ml antibody [10]: 2%
- IC50 CSF-1R Phosphorylation [11]: 0.049 µg/mL
- IC50 [12]: 0.0269 µg/mL

B2: <CSF-1R>6G4.1C8 (antibody, V domains shown)
VH: B1 VH with E89D, H114Q
VL: B1 VL with D31N, F83V
notes: Mouse monoclonal antibody from a hybridoma
- Kd [8]: 0.52 nM
- koff [8]: 0.00029 s⁻¹
- kon [8]: 570000 M⁻¹ s⁻¹
- t1/2 [8]: 39.4 min
- % survival, NIH3T Cells expressing Mutant CSF-1R, 10 ug/ml antibody [6]: 91%
- % survival, NIH3T Cells expressing wtCSF-1R, 10 ug/ml antibody [10]: 3%
- IC50 CSF-1R Phosphorylation [11]: 0.0826 µg/mL
- IC50 [12]: 0.0212 µg/mL

B3: <CSF-1R>10A4.1G11 (antibody, V domains shown)
VH: EVQLQQFGTELVKPGASVKISCKASGYTFTDYNMDWVKQSHGKSLEWIGDINPNYDSTTYNQKFKGKATLTVDKSSSTAYMELRSLTSEDTAVYYCARWRFFAMDYWGQGTSVTVSS
VL: DIQMTQSSSSFSVSLGDRVTITCKASEDIYNRLAWYQQKPGNAPRLLISGASSLETGVPSRFSGSGSGKDYTLSITSLQTEDVATYYCQQYWSIPWTFGGGTKLEIKR
notes: as for B2
- Kd [8]: 1.77 nM
- koff [8]: 0.0013 s⁻¹
- kon [8]: 740000 M⁻¹ s⁻¹
- t1/2 [8]: 8.89 min
- IC50 [nM], inhibition of the survival of monocytes [9]: 0.4 nM
- % survival, NIH3T Cells expressing Mutant CSF-1R, 10 ug/ml antibody [6]: 144%
- % survival, NIH3T Cells expressing wtCSF-1R, 10 ug/ml antibody [10]: 3%
- IC50 CSF-1R Phosphorylation [11]: 0.0154 µg/mL
- IC50 [12]: 0.0634 µg/mL
